Assay results from PMC7496822 (Arthritis & Rheumatology (Hoboken, N.j.), 2020).

Experiments:
Test in all cases: ELISA
actin from bovine muscle = actin from bovine muscle (Bos taurus, UniProt P68138)
SSA/Ro60 = SSA/Ro60 (Homo sapiens (assumed), UniProt P10155)
SSA/Ro52 = SSA/Ro52 (Homo sapiens (assumed), UniProt P19474)
[1] = target: insulin from bovine pancreas (Bos taurus, UniProt P01317)
Sequence of insulin from bovine pancreas (P01317 whole entry, looked up): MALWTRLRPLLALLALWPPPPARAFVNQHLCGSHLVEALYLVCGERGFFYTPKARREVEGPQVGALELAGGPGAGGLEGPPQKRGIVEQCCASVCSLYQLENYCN

Sequence of SSA/Ro60 (P10155 whole entry): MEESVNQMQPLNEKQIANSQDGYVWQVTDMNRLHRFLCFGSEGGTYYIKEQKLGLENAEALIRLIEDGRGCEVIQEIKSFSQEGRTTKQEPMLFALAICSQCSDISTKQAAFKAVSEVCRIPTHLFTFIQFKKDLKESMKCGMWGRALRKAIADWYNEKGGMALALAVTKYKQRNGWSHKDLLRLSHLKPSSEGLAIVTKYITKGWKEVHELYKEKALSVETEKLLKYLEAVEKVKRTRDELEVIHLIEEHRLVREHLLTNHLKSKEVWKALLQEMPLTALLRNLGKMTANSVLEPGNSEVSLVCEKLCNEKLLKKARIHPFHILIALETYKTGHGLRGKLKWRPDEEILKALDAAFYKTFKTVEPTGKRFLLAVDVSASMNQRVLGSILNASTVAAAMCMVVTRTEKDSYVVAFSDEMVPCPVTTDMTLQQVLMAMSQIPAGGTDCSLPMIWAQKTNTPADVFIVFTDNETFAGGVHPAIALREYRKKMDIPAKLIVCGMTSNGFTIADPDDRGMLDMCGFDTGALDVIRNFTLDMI
Sequence of SSA/Ro52 (P19474 whole entry): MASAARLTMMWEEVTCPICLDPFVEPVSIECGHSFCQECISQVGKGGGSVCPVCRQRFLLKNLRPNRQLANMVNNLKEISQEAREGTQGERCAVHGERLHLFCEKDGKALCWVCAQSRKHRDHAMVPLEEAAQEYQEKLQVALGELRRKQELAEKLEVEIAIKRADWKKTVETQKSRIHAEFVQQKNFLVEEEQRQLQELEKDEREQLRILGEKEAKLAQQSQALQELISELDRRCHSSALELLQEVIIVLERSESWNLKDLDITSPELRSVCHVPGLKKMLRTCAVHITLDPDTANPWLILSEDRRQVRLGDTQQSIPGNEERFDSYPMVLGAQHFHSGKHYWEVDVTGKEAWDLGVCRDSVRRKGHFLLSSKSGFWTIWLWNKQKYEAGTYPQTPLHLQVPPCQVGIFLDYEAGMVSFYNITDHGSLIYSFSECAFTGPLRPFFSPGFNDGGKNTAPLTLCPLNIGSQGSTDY

| binding result (actin from bovine muscle) | binding result (SSA/Ro60) | binding result (SSA/Ro52) | binding result [1] | Binder |
| --- | --- | --- | --- | --- |
| no binding (tested: up to 1 μg/ml IgM) | no binding (tested: up to 1 μg/ml IgM) | no binding (tested: up to 1 μg/ml IgM) | no binding (tested: up to 1 μg/ml IgM) | recombinant IgM of MALT lymphoma salivary gland sample M22 (antibody, V domains shown) VH: QVQLVQSGAEVKKSGSSVKVSCKASGGTFNNYAINWVRQAPGQGLEWMGGIIPIFGTPNYAQKFQGRVAITADKSTGTAYMELSSLRSEDTAVYYCARGSNDYGDNVPVQPYHYWGQGTLVTVSS VL: EIVLTQSPGTLSLSPGERATLSCRASQSISSTYLAWYQQKPGQAPRLLIYGASSRATGIPDRFSGSGSGTDFTLTISRLEPEDFAMYYCQQFGSSPQTFGQGTKLEIK |
| no binding (tested: up to 1 μg/ml IgM) | no binding (tested: up to 1 μg/ml IgM) | no binding (tested: up to 1 μg/ml IgM) | no binding (tested: up to 1 μg/ml IgM) | recombinant IgM of MALT lymphoma salivary gland sample M5 (antibody, V domains shown) VH: EVQLVESGGGLVQPGGSLRLSCAASGFTFSSYWMSWVRQAPGKGLEWVANIKEDGGGKYYVDSVKGRFTISRDNAKNSLYLQMNSLRVEDTAVYYCARGDFWSGDYIDAFDIWGQGTLVTVSS VL: EIVMTQSPATLSVSPGERATLSCRASQSVSSNLAWYQQKPGQPPRLLIYGASTRATGIPARFSGGGSGTEFTLTISSLQSEDFALYYCQHYNNWPPWTFGQGTKVEIK |
| no binding (tested: up to 1 μg/ml IgM) | no binding (tested: up to 1 μg/ml IgM) | no binding (tested: up to 1 μg/ml IgM) | no binding (tested: up to 1 μg/ml IgM) | recombinant IgM of MALT lymphoma salivary gland sample M11 (antibody, V domains shown) VH: QVQLVQSGAEVKKPGSSVKVSCRASGGTFSRYAISWVRQAPGQGLEWMGGIIPLFNTPNYAQKFQGRVTIIADESTSTAYMELSSLRSDDTAVYYCAREGIAAAVNPFDYWGQGTLVTVSS VL: not shown |
